The values that follow come from US20210380657A1 (COUNCIL OF THE QUEENSLAND INSTITUTE OF MEDICAL RESEARCH, published 2021).

B1: TCR Clone 1 of Donor A4T in Table 3 (TCR, V domains shown)
V domain 1: DQQVKQNSPSLSVQEGRISILNCDYTNSMFDYFLWYKKYPAEGPTFLISISSIKDKNEDGRFTVFLNKSAKHLSLHIVPSQPGDSAVYFCAASGLVEGNTPLVFGKGTRLSVIA
V domain 2: EAGVAQSPRYKIIEKRQSVAFWCNPISGHATLYWYQQILGQGPKLLIQFQNNGVVDDSQLPKDRFSAERLKGVDSTLKIQPAKLEDSAVYLCASSLFPGTGIHEQYFGPGTRLTVTE
notes: also called Donor A4T Clone 1
B2: TCR Clone 3 of Donor R7Z in Table 3 (TCR, V domains shown)
V domain 1: AQSVAQPEDQVNVAEGNPLTVKCTYSVSGNPYLFWYVQYPNRGLQFLLKYITGDNLVKGSYGFEAEFNKSQTSFHLKKPSALVSDSALYFCAVREASGANNLFFGTGTRLTVIP
V domain 2: SQTIHQWPATLVQPVGSPLSLECTVEGTSNPNLYWYRQAAGRGLQLLFYSVGIGQISSEVPQNLSASRPQDRQFILSSKKLLLSDSGFYLCAWSPQGNSPLHFGNGTRLTVTE
notes: also called Donor R7Z Clone 3
B3: TCR Clone 4 of Donor R7Z in Table 3 (TCR, V domains shown)
V domain 1: AQSVTQLDSHVSVSEGTPVLLRCNYSSSYSPSLFWYVQHPNKGLQLLLKYTSAATLVKGINGFEAEFKKSETSFHLTKPSAHMSDAAEYFCVVSYLGDTGRRALTFGSGTRLQVQP
V domain 2: EPEVTQTPSHQVTQMGQEVILRCVPISNHLYFYWYRQILGQKVEFLVSFYNNEISEKSEIFDDQFSVERPDGSNFTLKIRSTKLEDSAMYFCASSESGSPTGELFFGEGSRLTVLE
notes: also called Donor R7Z Clone 4
B4: TCR Clone 2 of Donor B5F in Table 3 (TCR, V domains shown)
V domain 1: GESVGLHLPTLSVQEGDNSIINCAYSNSASDYFIWYKQESGKGPQFIIDIRSNMDKRQGQRVTVLLNKTVKHLSLQIAATQPGDSAVYFCAETPGGYQKVTFGTGTKLQVIP
V domain 2: EAQVTQNPRYLITVTGKKLTVTCSQNMNHEYMSWYRQDPGLGLRQIYYSMNVEVTDKGDVPEGYKVSRKEKRNFPLILESPSPNQTSLYFCASSLWTSNSPLHFGNGTRLTVTE
notes: also called Donor B5F Clone 2
B5: TCR Clone 1 of Donor P6G in Table 3 (TCR, V domains shown)
V domain 1: KQEVTQIPAALSVPEGENLVLNCSFTDSAIYNLQWFRQDPGKGLTSLLLIQSSQREQTSGRLNASLDKSSGRSTLYIAASQPGDSATYLCAVGGDDSGAGSYQLTFGKGTKLSVIP
V domain 2: DSGVTQTPKHLITATGQRVTLRCSPRSGDLSVYWYQQSLDQGLQFLIQYYNGEERAKGNILERFSAQQFPDLHSELNLSSLELGDSALYFCASSRPEGIYNEQFFGPGTRLTVLE
notes: also called Donor P6G Clone 1
B6: TCR Clone 3 of Donor T3V in Table 3 (TCR, V domains shown)
V domain 1: AGQSLEQPSEVTAVEGAIVQINCTYQTSGFYGLSWYQQHDGGAPTFLSYNALDGLEETGRFSSFLSRSDSYGYLLLQELQMKDSASYFCAVPRRNNNARLMFGDGTQLVVKP
V domain 2: EAQVTQNPRYLITVTGKKLTVTCSQNMNHEYMSWYRQDPGLGLRQIYYSMNVEVTDKGDVPEGYKVSRKEKRNFPLILESPSPNQTSLYFCASSLNTGMNTEAFFGQGTRLTVVE
notes: also called Donor T3V Clone 3
B7: TCR Clone 5 of Donor R7Z in Table 3 (TCR, V domains shown)
V domain 1: GIQVEQSPPDLILQEGANSTLRCNFSDSVNNLQWFHQNPWGQLINLFYIPSGTKQNGRLSATTVATERYSLLYISSSQTTDSGVYFCAVVGNNDMRFGAGTRLTVKP
V domain 2: DSGVTQTPKHLITATGQRVTLRCSPRSGDLSVYWYQQSLDQGLQFLIQYYNGEERAKGNILERFSAQQFPDLHSELNLSSLELGDSALYFCASSVAPWYEQYFGPGTRLTVTE
notes: also called Donor R7Z Clone 5
B8: TCR Clone 1 of Donor B5F in Table 3 (TCR, V domains shown)
V domain 1: B7 V domain 1 with V90L, G91N
V domain 2: B7 V domain 2 with A96S, P97S, Y102F, T112L
notes: also called Donor B5F Clone 1
B9: TCR Clone 2 of Donor R7Z in Table 3 (TCR, V domains shown)
V domain 1: B7 V domain 1 with G91I
V domain 2: B7 V domain 2 with W98F
notes: also called Donor R7Z Clone 2
B10: TCR Clone 1 of Donor R7Z in Table 3 (TCR, V domains shown)
V domain 1: KQEVTQIPAALSVPEGENLVLNCSFTDSAIYNLQWFRQDPGKGLTSLLLIQSSQREQTSGRLNASLDKSSGRSTLYIAASQPGDSATYLCAVWAGGTSYGKLTFGQGTILTVHP
V domain 2: DVKVTQSSRYLVKRTGEKVFLECVQDMDHENMFWYRQDPGLGLRLIYFSYDVKMKEKGDIPEGYSVSREKKERFSLILESASTNQTSMYLCASSPAGRPGKPLHFGNGTRLTVTE
notes: also called Donor R7Z Clone 1
B11: TCR Clone 1 of Donor T3V in Table 3 (TCR, V domains shown)
V domain 1: DQQVKQNSPSLSVQEGRISILNCDYTNSMFDYFLWYKKYPAEGPTFLISISSIKDKNEDGRFTVFLNKSAKHLSLHIVPSQPGDSAVYFCAASAGGQNFVFGPGTRLSVLP
V domain 2: DAGITQSPRHKVTETGTPVTLRCHQTENHRYMYWYRQDPGHGLRLIHYSYGVKDTDKGEVSDGYSVSRSKTEDFLLTLESATSSQTSVYFCAIRRGGSSYNEQFFGPGTRLTVLE
notes: also called Donor T3V Clone 1
B12: TCR Clone 1 of Donor Y6W in Table 5 (TCR, V domains shown)
V domain 1: SLAKTTQPISMDSYEGQEVNITCSHNNIATNDYITWYQQFPSQGPRFIIQGYKTKVTNEVASLFIPADRKSSTLSLPRVSLSDTAVYYCLVVPFGGYNKLIFGAGTRLAVHP
V domain 2: SAVISQKPSRDICQRGTSLTIQCQVDSQVTMMFWYRQQPGQSLTLIATANQGSEATYESGFVIDKFPISRPNLTFSTLTVSNMSPEDSSIYLCSVGEGTSGYESYNEQFFGPGTRLTVLE
notes: also called Donor Y6W Clone 1
B13: TCR Clone 6 of Donor Y6W in Table 5 (TCR, V domains shown)
V domain 1: QKEVEQNSGPLSVPEGAIASLNCTYSDRGSQSFFWYRQYSGKSPELIMFIYSNGDKEDGRFTAQLNKASQYVSLLIRDSQPSDSATYLCAAEPFSSYKLIFGSGTRLLVRP
V domain 2: GAGVSQSPSNKVTEKGKDVELRCDPISGHTALYWYRQSLGQGLEFLIYFQGNSAPDKSGLPSDRFSAERTGGSVSTLTIQRTQQEDSAVYLCASSFIGGTGLNEQFFGPGTRLTVLE
notes: also called Donor Y6W Clone 6
B14: TCR Clone 8 of Donor Y6W in Table 5 (TCR, V domains shown)
V domain 1: KTTQPPSMDCAEGRAANLPCNHSTISGNEYVYWYRQIHSQGPQYIIHGLKNNETNEMASLIITEDRKSSTLILPHATLRDTAVYYCIVRVAGGTSYGKLTFGQGTILTVHP
V domain 2: SQTIHQWPATLVQPVGSPLSLECTVEGTSNPNLYWYRQAAGRGLQLLFYSVGIGQISSEVPQNLSASRPQDRQFILSSKKLLLSDSGFYLCAWSSAPDRGHRQPQHFGDGTRLSILE
notes: also called Donor Y6W Clone 8
B15: TCR Clone 14 of Donor Y6W in Table 5 (TCR, V domains shown)
V domain 1: TGQNIDQPTEMTATEGAIVQINCTYQTSGFNGLFWYQQHAGEAPTFLSYNVLDGLEEKGRFSSFLSRSKGYSYLLLKELQMKDSASYLCAGEDQTGANNLFFGTGTRLTVIP
V domain 2: DVKVTQSSRYLVKRTGEKVFLECVQDMDHENMFWYRQDPGLGLRLIYFSYDVKMKEKGDIPEGYSVSREKKERFSLILESASTNQTSMYLCASGTLSYNEQFFGPGTRLTVLE
notes: also called Donor Y6W Clone 14
B16: TCR Clone 10 of Donor Y6W in Table 5 (TCR, V domains shown)
V domain 1: RKEVEQDPGPFNVPEGATVAFNCTYSNSASQSFFWYRQDCRKEPKLLMSVYSSGNEDGRFTAQLNRASQYISLLIRDSKLSDSATYLCVLSGAGSYQLTFGKGTKLSVIP
V domain 2: NAGVTQTPKFQVLKTGQSMTLQCAQDMNHNSMYWYRQDPGMGLRLIYYSASEGTTDKGEVPNGYNVSRLNKREFSLRLESAAPSQTSVYFCASSEWREETQYFGPGTRLLVLE
notes: also called Donor Y6W Clone 10
B17: TCR Clone 13 of Donor Y6W in Table 5 (TCR, V domains shown)
V domain 1: AQSVTQPDIHITVSEGASLELRCNYSYGATPYLFWYVQSPGQGLQLLLKYFSGDTLVQGIKGFEAEFKRSQSSFNLRKPSVHWSDAAEYFCAAPGVGSNSGYALNFGKGTSLLVTP
V domain 2: DSGVTQTPKHLITATGQRVTLRCSPRSGDLSVYWYQQSLDQGLQFLIQYYNGEERAKGNILERFSAQQFPDLHSELNLSSLELGDSALYFCASSPSWAANSPLHFGNGTRLTVTE
notes: also called Donor Y6W Clone 13
B18: TCR Clone 15 of Donor Y6W in Table 5 (TCR, V domains shown)
V domain 1: QKEVEQNSGPLSVPEGAIASLNCTYSDRGSQSFFWYRQYSGKSPELIMFIYSNGDKEDGRFTAQLNKASQYVSLLIRDSQPSDSATYLCAVKVGTGFQKLVFGTGTRLLVSP
V domain 2: DTGVSQNPRHKITKRGQNVTFRCDPISEHNRLYWYRQTLGQGPEFLTYFQNEAQLEKSRLLSDRFSAERPKGSFSTLEIQRTEQGDSAMYLCASSLVGQGNTEAFFGQGTRLTVVE
notes: also called Donor Y6W Clone 15
B19: TCR Clone 2 of Donor Y6W in Table 5 (TCR, V domains shown)
V domain 1: QKEVEQNSGPLSVPEGAIASLNCTYSDRGSQSFFWYRQYSGKSPELIMFIYSNGDKEDGRFTAQLNKASQYVSLLIRDSQPSDSATYLCAVNVGNTGFQKLVFGTGTRLLVSP
V domain 2: SQTIHQWPATLVQPVGSPLSLECTVEGTSNPNLYWYRQAAGRGLQLLFYSVGIGQISSEVPQNLSASRPQDRQFILSSKKLLLSDSGFYLCACQWQGLGGELFFGEGSRLTVLE
notes: also called Donor Y6W Clone 2
B20: TCR Clone 3 of Donor Y6W in Table 5 (TCR, V domains shown)
V domain 1: GENVEQHPSTLSVQEGDSAVIKCTYSDSASNYFPWYKQELGKGPQLIIDIRSNVGEKKDQRIAVTLNKTAKHFSLHITETQPEDSAVYFCAASEFQFYFGTGTSLTVIP
V domain 2: DSGVTQTPKHLITATGQRVTLRCSPRSGDLSVYWYQQSLDQGLQFLIQYYNGEERAKGNILERFSAQQFPDLHSELNLSSLELGDSALYFCASSPGQRANTGELFFGEGSRLTVLE
notes: also called Donor Y6W Clone 3
B21: TCR Clone 1 of Donor B33 in Table 5 (TCR, V domains shown)
V domain 1: GQQVMQIPQYQHVQEGEDFTTYCNSSTTLSNIQWYKQRPGGHPVFLIQLVKSGEVKKQKRLTFQFGEAKKNSSLHITATQTTDVGTYFCAGPGTGAGSYQLTFGKGTKLSVIP
V domain 2: DVKVTQSSRYLVKRTGEKVFLECVQDMDHENMFWYRQDPGLGLRLIYFSYDVKMKEKGDIPEGYSVSREKKERFSLILESASTNQTSMYLCASIKSSGYNEQFFGPGTRLTVLE
notes: also called Donor B33 Clone 1
B22: TCR Clone 1 of Donor B5F in Table 5 (TCR, V domains shown)
V domain 1: B21 V domain 1 with G93Y, T94S
V domain 2: B21 V domain 2 with K95L
notes: also called Donor B5F Clone 1

Where a chain is given by its changes, count along the chain named. Names and notes keep the numbering of the source.

In the first experiment the target is HLA-A*11:01-… (human; Epstein Barr Virus). Kind of experiment: HLA-peptide multimer staining and single-cell sorting of CD8+ T cells, paired TCR sequencing.
Procedure: (§1) T cell lines were labelled with an allophycocyanin (APC)-conjugated HLA-peptide multimer (ProImmune Ltd., Oxford, UK) by incubation for 30 minutes at room temperature. Cells were then washed and incubated with Cy5.5-PerCP conjugated anti-human CD8 mAb (BioLegend, San Diego, Calif.) for 30 minutes at 4° C. Cells were washed, analyzed and sorted as single cells into 96-well PCR plates (Eppendorf, Hamburg, Germany) using the FACS Aria III flow cytometer (BD Biosciences).
Consider B1, for which the binding result is on record as “binds”.

Take B2: the binding result was “binds”.

For B3, the binding result is recorded as “binds”.

B4: the binding result is “binds”.

As for B5, the binding result is listed as “binds”.

As for B6, the binding result was “binds”.

Regarding B7, the binding result is “binds”.

B8: the binding result is reported as “binds”.

Turning to B9, the binding result is listed as “binds”.

Regarding B10, the binding result was “binds”.

Take B11: the binding result is “binds”.

In another experiment the target is HLA-A*24:02-… (human; Epstein Barr Virus). Described as above.
Procedure: as §1
As for B12, the binding result is reported as “binds”.

With B13, the binding result was “binds”.

B14: the binding result is “binds”.

As for B15, the binding result is listed as “binds”.

Turning to B16, the binding result was “binds”.

As to B17, the binding result is listed as “binds”.

Turning to B18, the binding result is recorded as “binds”.

For the molecule B19, the binding result is “binds”.

B20: the binding result is “binds”.

Take B21: the binding result is recorded as “binds”.

As for B22, the binding result is reported as “binds”.
